T1: papain (UniProt P00784 134-345)
T1 sequence (looked up): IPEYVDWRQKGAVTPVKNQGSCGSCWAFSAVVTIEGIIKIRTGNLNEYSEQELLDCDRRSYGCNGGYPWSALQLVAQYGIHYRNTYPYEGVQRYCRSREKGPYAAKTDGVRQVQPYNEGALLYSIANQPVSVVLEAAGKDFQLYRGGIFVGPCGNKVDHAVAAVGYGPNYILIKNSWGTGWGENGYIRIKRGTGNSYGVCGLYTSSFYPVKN


How the values were obtained:
[1] = biological target: T2, human SUMO1 (human, UniProt P63165 1-97); assay: ELISA and Western blot with biotinylated Adhiron
T2 construct: also called hSUMO1

[2] = biological target: T3, yeast Small Ubiquitin-like Modifier protein (SUMO) (yeast, UniProt Q12306 1-98 = SUMO); assay: BioLayer Interferometry (BLitz), biotinylated Adhiron on streptavidin biosensor, global fit
T3 construct: also called ySUMO; yeast SUMO
T3 sequence (Q12306 1-98 limits assumed): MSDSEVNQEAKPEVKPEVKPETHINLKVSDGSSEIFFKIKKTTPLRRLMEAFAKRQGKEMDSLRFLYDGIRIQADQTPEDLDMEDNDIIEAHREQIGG

[3] = biological target: T1, papain; assay: cell-based or functional assay
[4] = biological target: T1, papain; assay: SPR (BIACORE 3000), cystatin on NTA chip via His tag, papain as analyte, 1:1 Langmuir fit
[5] = biological target: T3, yeast Small Ubiquitin-like Modifier …; assay: phage ELISA on biotinylated ySUMO

T2 sequence (P63165 1-97 limits assumed): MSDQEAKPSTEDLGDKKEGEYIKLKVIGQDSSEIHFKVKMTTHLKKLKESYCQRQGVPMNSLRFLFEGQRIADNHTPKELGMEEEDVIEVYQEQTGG

Binder	binding result [5]	also measured
Ad-ySUMO 20 (designed binder, also called clone 20) NSLEIEELARFAVDEHNKKENALLEFVRVVKAKEQIDLTGQWLFTMYYLTLEAKDGGKKKLYEAKVWVKPLWQYDAQYNFKELQEFKPVGDA	–	binding result [1]: no binding; Kd [2]: 14.2 nM
OSA-IΔD86 (other, also called OSA1ΔD86; modified oryzacystatin lacking residue Asp86) MSSDGGPVLGGVEPVGNENDLHLVDLARFAVTEHNKKANSLLEFEKLVSVKQQVVAGTLYYFTIEVKEGDAKKLYEAKVWEKPWMFKELQEFKPVDASANARGSHHHHHH	–	IC50, papain inhibition assay with pGlu-Phe-Leu-p-nitroanilide [3]: 1.8e-07 M; Ka [4]: 2.1e+08 M⁻¹
CEWC (other, chicken, also called chicken egg white cystatin) SEDRSRLLGAPVPVDENDEGLQRALQFAMAEYNRASNDKYSSRVVRVISAKRQLVSGIKYILQVEIGRTTCPKSSGDLQSCEFHDEPEMAKYTTCTFVVYSIPWLNQIKLLESKCQRGSHHHHHH	–	Ka [4]: 2.6e+09 M⁻¹; Kd [4]: 0.39 nM; kon [4]: 1.3e+06 M⁻¹ s⁻¹
Ad-ySUMO 17 (designed binder, also called clone 17) NSLEIEELARFAVDEHNKKENALLEFVRVVKAKEQWYLLDVMDDTMYYLTLEAKDGGKKKLYEAKVWVKHDRRYKQAENFKELQEFKPVGDA	binds	–
Ad-ySUMO 9 (designed binder, also called clone 9) NSLEIEELARFAVDEHNKKENALLEFVRVVKAKEQIDLTDVWIDTMYYLTLEAKDGGKKKLYEAKVWVKGLMTQTNSMNFKELQEFKPVGDA	binds	–
Ad-ySUMO 4 (designed binder, also called clone 4) NSLEIEELARFAVDEHNKKENALLEFVRVVKAKEQIDLTHSLNYTMYYLTLEAKDGGKKKLYEAKVWVKGLTNEIQKMNFKELQEFKPVGDA	binds	–
Ad-ySUMO 5 (designed binder, also called clone 5) NSLEIEELARFAVDEHNKKENALLEFVRVVKAKEQIDLTHSLNYTMYYLTLEAKDGGKKKLYEAKVWVKGLTNEIQKMNFKELQEFKPVGDA	binds	–
Ad-ySUMO 18 (designed binder, also called clone 18) NSLEIEELARFAVDEHNKKENALLEFVRVVKAKEQWIDRGQYWDTMYYLTLEAKDGGKKKLYEAKVWVKIHNGYTIMDNFKELQEFKPVGDA	binds	–
Ad-ySUMO 24 (designed binder, also called clone 24) NSLEIEELARFAVDEHNKKENALLEFVRVVKAKEQWEDFQTHWETMYYLTLEAKDGGKKKLYEAKVWVKDVGQLLSGINFKELQEFKPVGDA	binds	–
Ad-ySUMO 2 (designed binder, also called clone 2) NSLEIEELARFAVDEHNKKENALLEFVRVVKAKEQIDLTNSFASTMYYLTLEAKDGGKKKLYEAKVWVKDINQYWHSMNFKELQEFKPVGDA	binds	–
Ad-ySUMO 23 (designed binder, also called clone 23) NSLEIEELARFAVDEHNKKENALLEFVRVVKAKEQIDLTQPHDSTMYYLTLEAKDGGKKKLYEAKVWVKPHDELNWNMNFKELQEFKPVGDA	binds	–
Ad-ySUMO 22 (designed binder, also called clone 22) NSLEIEELARFAVDEHNKKENALLEFVRVVKAKEQIDLTQSFDMTMYYLTLEAKDGGKKKLYEAKVWVKPIDSNFTGTNFKELQEFKPVGDA	–	binding result [1]: no binding; Kd [2]: 9 nM
Ad-ySUMO 15 (designed binder, also called clone 15; Yeast Sumo Adhiron 15) NSLEIEELARFAVDEHNKKENALLEFVRVVKAKEQIDLTQPHDSTMYYLTLEAKDGGKKKLYEAKVWVKYEEDEYWRMNFKELQEFKPVGDA	–	binding result [1]: no binding; Kd [2]: 2.4 nM
Ad-ySUMO 10 (designed binder, also called clone 10) NSLEIEELARFAVDEHNKKENALLEFVRVVKAKEQIIIHENDADTMYYLTLEAKDGGKKKLYEAKVWVKGIMDGLNKYNFKELQEFKPVGDA	–	binding result [1]: no binding; Kd [2]: 11.5 nM
Ad-ySUMO 1 (designed binder, also called clone 1) NSLEIEELARFAVDEHNKKENALLEFVRVVKAKEQWDLTGNVDTTMYYLTLEAKDGGKKKLYEAKVWVKWDDWGERFWNFKELQEFKPVGDA	binds	–
PHYTC57 (designed binder, also called consensus phytocystatin; consensus cystatin) MAALLGGVRAVPGNENSLEIEELARFAVDEHNKKENALLEFVRVVKAKEQVVAGTMYYLTLEAKDGGKKKLYEAKVWVKPWETFKELQEFKPVGDARGSHHHHHH	–	IC50, papain inhibition assay with pGlu-Phe-Leu-p-nitroanilide [3]: 4.6e-08 M; Ka [4]: 1.6e+11 M⁻¹; Kd [4]: 0.0063 nM; kon [4]: 350000 M⁻¹ s⁻¹
Ad-ySUMO 13 (designed binder, also called clone 13) NSLEIEELARFAVDEHNKKENALLEFVRVVKAKEQWDLTTPINITMYYLTLEAKDGGKKKLYEAKVWVKYEDYQTPMYNFKELQEFKPVGDA	binds	–
Ad-ySUMO 6 (designed binder, also called clone 6) NSLEIEELARFAVDEHNKKENALLEFVRVVKAKEQIDLTEWQDRTMYYLTLEAKDGGKKKLYEAKVWVKPEPIHSHHSNFKELQEFKPVGDA	binds	–
Ad-ySUMO 7 (designed binder, also called clone 7) NSLEIEELARFAVDEHNKKENALLEFVRVVKAKEQWVDMDYYWRTMYYLTLEAKDGGKKKLYEAKVWVKMDEIWAEYANFKELQEFKPVGDA	binds	–
Ad-ySUMO 14 (designed binder, also called clone 14) NSLEIEELARFAVDEHNKKENALLEFVRVVKAKEQWFDDEYDWITMYYLTLEAKDGGKKKLYEAKVWVKDYAATDLYWNFKELQEFKPVGDA	binds	–
Ad-ySUMO 8 (designed binder, also called clone 8) NSLEIEELARFAVDEHNKKENALLEFVRVVKAKEQIDLTQTEIVTMYYLTLEAKDGGKKKLYEAKVWVKEPGIIPIVHNFKELQEFKPVGDA	binds	–
Ad-ySUMO 3 (designed binder, also called clone 3) NSLEIEELARFAVDEHNKKENALLEFVRVVKAKEQINLMMVSPMTMYYLTLEAKDGGKKKLYEAKVWVKGIQQNPSHANFKELQEFKPVGDA	binds	–
Ad-ySUMO 12 (designed binder, also called clone 12) NSLEIEELARFAVDEHNKKENALLEFVRVVKAKEQWYERSENWDTMYYLTLEAKDGGKKKLYEAKVWVKRDYGFTLVPNFKELQEFKPVGDA	binds	–
Ad-ySUMO 19 (designed binder, also called clone 19) NSLEIEELARFAVDEHNKKENALLEFVRVVKAKEQWSEADNDWHTMYYLTLEAKDGGKKKLYEAKVWVKLDLETWQHFNFKELQEFKPVGDA	binds	–

— patent publication US20180245067A1 (UNIVERSITY OF LEEDS, published 2018)
